Target: anti-Fel d1 mAB 6F9
Experiment: sandwich ELISA: mAB 6F9 coated, Fel d1 protein in doubling dilutions 80-0.16 ng/ml, detected with biotinylated mAB 3E4; Fel d1 (ng/ml) at OD50%

An EC50 of 7.2 ng/mL was found for “natural Fel d1 (from UniProt P30440 18-109)” in this work.
